Assay results published in patent US20070231333A1, “ANTI-5T4 ANTIBODIES AND USES THEREOF” (Wyeth, priority 2006, published 2007).

T1: human 5T4 antigen (Homo sapiens, UniProt Q13641)
T1 sequence (Q13641 32-420): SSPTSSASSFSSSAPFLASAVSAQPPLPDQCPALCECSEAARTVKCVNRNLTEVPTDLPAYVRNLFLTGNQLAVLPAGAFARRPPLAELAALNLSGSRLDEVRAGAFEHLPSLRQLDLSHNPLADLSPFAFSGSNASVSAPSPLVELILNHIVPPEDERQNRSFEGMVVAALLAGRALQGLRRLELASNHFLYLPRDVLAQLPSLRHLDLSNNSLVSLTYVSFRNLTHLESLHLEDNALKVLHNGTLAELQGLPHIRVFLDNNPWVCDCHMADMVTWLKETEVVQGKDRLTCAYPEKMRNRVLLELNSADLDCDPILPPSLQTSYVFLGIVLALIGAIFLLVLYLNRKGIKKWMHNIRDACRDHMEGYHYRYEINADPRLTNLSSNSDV

T2: rat 5T4 ectodomain/Fc fusion protein (Rattus norvegicus, UniProt Q5PQV5)
T2 construct: rat 5T4 (amino acids 1-361); human IgG1 Fc; made in house; host or cells: COS-1 cells (transient transfection)
T2 sequence (Q5PQV5 32-361): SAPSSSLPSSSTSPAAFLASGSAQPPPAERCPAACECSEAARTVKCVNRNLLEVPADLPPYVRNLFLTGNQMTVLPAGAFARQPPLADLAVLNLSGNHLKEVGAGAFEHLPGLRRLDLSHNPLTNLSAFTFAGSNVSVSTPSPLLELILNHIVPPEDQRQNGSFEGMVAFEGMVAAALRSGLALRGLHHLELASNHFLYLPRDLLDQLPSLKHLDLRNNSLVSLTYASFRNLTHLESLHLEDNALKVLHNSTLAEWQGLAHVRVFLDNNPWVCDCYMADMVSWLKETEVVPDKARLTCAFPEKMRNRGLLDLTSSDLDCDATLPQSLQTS

T3: mouse 5T4 ectodomain/Fc fusion protein (Mus musculus, UniProt Q9Z0L0)
T3 construct: prepared using mouse 5T4 (amino acids 1-361); human IgG1 Fc; made in house; host or cells: COS-1 cells (transient transfection)
T3 sequence (Q9Z0L0 32-361): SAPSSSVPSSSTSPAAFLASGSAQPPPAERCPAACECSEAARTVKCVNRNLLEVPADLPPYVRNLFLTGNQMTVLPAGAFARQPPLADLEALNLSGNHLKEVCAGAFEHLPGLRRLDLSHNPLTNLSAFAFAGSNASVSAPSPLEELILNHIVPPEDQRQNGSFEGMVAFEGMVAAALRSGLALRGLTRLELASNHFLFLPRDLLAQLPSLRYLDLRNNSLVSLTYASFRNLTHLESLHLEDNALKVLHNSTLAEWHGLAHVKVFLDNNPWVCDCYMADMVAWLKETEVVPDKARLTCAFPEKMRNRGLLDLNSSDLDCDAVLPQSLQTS


Experiments:
[1] = biological target: T1, human 5T4 antigen; assay: BIACORE analysis of antibody binding to human 5T4 antigen immobilized on a CM5 chip; settings: chimeric and humanized antibodies, Table 12
Method: To assess the binding specificity and affinity of the A1, A2, and A3 antibodies, BIACORE® analysis was performed using human 5T4 antigen immobilized on a CM5 chip. BIACORE® technology utilizes changes in the refractive index at the surface layer upon binding of the antibody to the 5T4 antigen immobilized on the layer. Binding is detected by surface plasmon resonance (SPR) of laser light refracting from the surface. Analysis of the signal kinetics on rate and off rate allows discrimination between non-specific and specific interactions. The H8 anti-5T4 antibody was used as a control. H8 is a hybridoma-generated monoclonal mouse IgG1 antibody described in PCT International Publication No. WO 98/55607 and in Forsberg et al. (1997) J. Biol. Chem. 272(19):[…].
To assess the binding specificity and affinity of the chimeric and humanized H8, A1, A2, and A3 antibodies, BIACORE® analysis was performed using human 5T4 antigen immobilized on a CM5 chip. See Example 2.

[2] = biological target: T2, rat 5T4 ectodomain/Fc fusion protein; assay: Cross-species reactivity ELISA, 5T4 ectodomain/Fc fusion proteins; type: binding; parameters: key: +: binding; −: no binding; +/−: partial binding
Method: (§1) The cross-species reactivity of anti-5T4 antibodies disclosed herein was assayed to determine relevant species for in vivo efficacy studies and toxicology analysis. Correlation of binding activity and relatedness of the different 5T4 ectodomains was also used to further describe the epitope bound by each antibody. Binding assays were performed using 5T4 ectodomains from various species fused to human IgG1 Fc. To assay binding of anti-5T4 antibodies, 5T4 ectodomain/Fc fusion proteins were transiently transfected into COS-1 cells, and ELISA assays were performed. Non-relevant human IgG4 and IgG1 antibodies were used as controls.

[3] = biological target: T3, mouse 5T4 ectodomain/Fc fusion protein; assay: as above; type: binding; parameters: key: +: binding; −: no binding; +/−: partial binding
Method: as §1

[4] = biological target: T1, human 5T4 antigen; assay: BIACORE competition assay: second antibody after saturation with first antibody; type: binding
Method: Epitope mapping of the H8, A1, A2, and A3 antibodies was also performed using BIACORE® using a CM5 chip with bound human 5T4 antigen. The chip was saturated with H8, A1, A2, or A3 antibody, and a first response was measured. The chip was then saturated with a second antibody from among the H8, A1, A2, and A3 antibodies, and a second response was measured. For multiple experiments, the chip was regenerated by dissociation of the bound antibodies in 10 mM glycine, pH 1.5, followed by a buffer wash. The percentages shown are the response units measured upon binding by a second antibody directly to the CM5 chip divided by the response units measured upon binding of the second antibody to a CM5 chip saturated with a first antibody.
The epitopes bound by the H8 and A3 antibodies are sterically close to each other such that the rate of association with antigen is decreased when binding of H8 is assayed in the presence of A3, and vice versa. Similar results were obtained using the chimeric and humanized H8, A1, A2, and A3 antibodies, which were prepared as described in Example 7 herein below.

[5] = first antibody chimeric A3, 19 seconds after injection of second antibody
[6] = first antibody chimeric A3, 37.5 seconds after injection of second antibody
[7] = first antibody chimeric A3, 75 seconds after injection of second antibody
[8] = first antibody chimeric A3, 150 seconds after injection of second antibody
[9] = first antibody chimeric A3, 300 seconds after injection of second antibody
[10] = first antibody chimeric A3, 600 seconds after injection of second antibody

Row | KA [1] [M⁻¹] | ka [1] [M⁻¹ s⁻¹] | kd [1] [s⁻¹] | cross-reactivity (binding class) [2] | cross-reactivity (binding class) [3] | Percentage of Second Antibody Bound Following Saturation With First Antibody [4, 5] [%] | Percentage of Second Antibody Bound Following Saturation With First Antibody [4, 6] [%] | Percentage of Second Antibody Bound Following Saturation With First Antibody [4, 7] [%] | Percentage of Second Antibody Bound Following Saturation With First Antibody [4, 8] [%] | Percentage of Second Antibody Bound Following Saturation With First Antibody [4, 9] [%] | Percentage of Second Antibody Bound Following Saturation With First Antibody [4, 10] [%] | Molecule | other results
1 | 1.7e+09 | 27000 | 1.6e-05 |  |  |  |  |  |  |  |  | Chimeric A3 + C91Y: chimeric A3 antibody bearing C91Y mutation in the heavy chain variable region (antibody, V domains shown) VH: EVQLVESGGGLVQPKGSLKLSCAASGFTFNTYAMNWVRQAPGKGLEWVARIRSKSNNYATYYADSVKDRFTISRDDSQSMLYLQMNNLKTEDTAMYYCVRQWDYDVRAMNYWGQGTSVTVSS VL: DIVMTQSHIFMSTSVGDRVSITCKASQDVDTAVAWYQQKPGQSPKLLIYWASTRLTGVPDRFTGSGSGTDFTLTISNVQSEDLADYFCQQYSSYPYTFGGGTKLEIK | Kd [1]: 5.9 nM
2 | 5.7e+08 | 140000 | 0.00025 | − | − | 89.2 | 88.4 | 89.8 | 91.5 | 92.9 | 94.3 | chimeric A2: chimeric A2 antibody: murine A2 variable regions, human IgG4 heavy chain and human kappa light chain constant regions (antibody, V domains shown) VH: QVQLQQSRPELVKPGASVKMSCKASGYTFTDYVISWVKQRTGQGLEWIGEIYPGSNSIYYNEKFKGRATLTADKSSSTAYMQLSSLTSEDSAVYFCAMGGNYGFDYWGQGTTLTVSS VL: QIVLTQSPAIMSASLGERVTLTCTASSSVNSNYLHWYQQKPGSSPKLWIYSTSNLASGVPARFSGSGSGTSYSLTISSMEAEDAATYYCHQYHRSPLTFGAGTKLELK | Percentage of Second Antibody Bound Following Saturation With First Antibody ([4]; first antibody chimeric A1, 19 seconds after injection of second antibody): 102.9%; Percentage of Second Antibody Bound Following Saturation With First Antibody ([4]; first antibody chimeric A1, 37.5 seconds after injection of second antibody): 93.5%; Percentage of Second Antibody Bound Following Saturation With First Antibody ([4]; first antibody chimeric A1, 75 seconds after injection of second antibody): 90.1%; Percentage of Second Antibody Bound Following Saturation With First Antibody ([4]; first antibody chimeric A1, 150 seconds after injection of second antibody): 89.0%; Percentage of Second Antibody Bound Following Saturation With First Antibody ([4]; first antibody chimeric A1, 300 seconds after injection of second antibody): 88.9%; Percentage of Second Antibody Bound Following Saturation With First Antibody ([4]; first antibody chimeric A1, 600 seconds after injection of second antibody): 89.1%
3 | 2.3e+09 | 150000 | 6.7e-05 | +/− | − | 98.8 | 96.5 | 97.0 | 98.0 | 98.8 | 99.6 | chimeric A1: chimeric A1 antibody: murine A1 variable regions, human IgG4 heavy chain and human kappa light chain constant regions (antibody, V domains shown) VH: QIQLVQSGPELKKPGETVKISCKASGYTFTNFGMNWVKQGPGEGLKWMGWINTNTGEPRYAEEFKGRCAFSLETTASTAYLQINNLKNEDTATYFCARDWDGAYFFDYWGQGTTLTVSS VL: SIVMTQTPKFLLVSAGDRVTITCKASQSVSNDVAWYQQKPGQSPKLLINFATNRYTGVPNRFTGSGYGTDFTFTISTVQAEDLALYFCQQDYSSPWTFGGGTKLEIK | Percentage of Second Antibody Bound Following Saturation With First Antibody ([4]; first antibody chimeric A2, 19 seconds after injection of second antibody): 92.5%; Percentage of Second Antibody Bound Following Saturation With First Antibody ([4]; first antibody chimeric A2, 37.5 seconds after injection of second antibody): 90.6%; Percentage of Second Antibody Bound Following Saturation With First Antibody ([4]; first antibody chimeric A2, 75 seconds after injection of second antibody): 91.4%; Percentage of Second Antibody Bound Following Saturation With First Antibody ([4]; first antibody chimeric A2, 300 seconds after injection of second antibody): 93.9%; Percentage of Second Antibody Bound Following Saturation With First Antibody ([4]; first antibody chimeric A2, 600 seconds after injection of second antibody): 95.5%
4 | 2.6e+09 | 170000 | 6.3e-05 |  |  |  |  |  |  |  |  | Chimeric A1 + C67F: chimeric A1 antibody bearing C67F mutation in the heavy chain variable region (antibody, V domains shown) VH: QIQLVQSGPELKKPGETVKISCKASGYTFTNFGMNWVKQGPGEGLKWMGWINTNTGEPRYAEEFKGRFAFSLETTASTAYLQINNLKNEDTATYFCARDWDGAYFFDYWGQGTTLTVSS VL: SIVMTQTPKFLLVSAGDRVTITCKASQSVSNDVAWYQQKPGQSPKLLINFATNRYTGVPNRFTGSGYGTDFTFTISTVQAEDLALYFCQQDYSSPWTFGGGTKLEIK | 
